# Reference: PMC3326311 (Nucleic Acids Research, 2011)
# Substitutions are numbered along the chain they refer to. Numbers in names are those of the source.
# B1: HerA helicase (Sulfolobus solfataricus), untagged (enzyme, Sulfolobus solfataricus P2, UniProt Q97WG8 1-500, looked up)
# chain: MIIGYVIGQATTQEALILAERPVRLGTYVVLEYDNVKALGLITNVTRGSPMLDDNMNDIEIVQRLKQFNNSIPVYTKAKVKMLCDMNNHFLMPDIPPFAGTPAREAEDEELKSIYSQDGQIRIGSLIGKNVEVKLNINSFARHLAILAATGSGKSNTVAVLSQRISELGGSVLIFDYHGEYYDSDIKNLNRIEPKLNPLYMTPREFSTLLEIRENAIIQYRILRRAFIKVTNGIREKLKEGQIPFSTLNSQFYELMKDELETQGNSDKKSSAKDEVLNKFEEFMDRYSNVIDLTSSDIIEKVKRGKVNVVSLTQLDEDSMDAVVSHYLRRILDSRKDFKRSKNSGLKFPIIAVIEEAHVFLSKNENTLTKYWASRIAREGRKFGVGLTIVSQRPKGLDENILSQMTNKIILKIIEPTDKKYILESSDNLSEDLAEQLSSLDVGEAIIIGKIVKLPAVVKIDMFEGKLLGSDPDMIGEWKKVEESEKIAKGFADFGTEIGD
# B2: NurA nuclease (Sulfolobus solfataricus), untagged (enzyme, Sulfolobus solfataricus P2)
# chain: MIRKIYDKLVESHNEIKNQIYNIANYLKQEIQDKVNEYWNEYVINHEQSETCKFVAIDGGSFGRPMRIGIVYAVGAESVIGDNKGVKTLSEDGQIGIFKPGNDAQERISLLMEALELSLALRDGSKGDYILMDGSLSKKIGNKVDIQQFSDEELKLIRNVDLNGIISIKDERKMRDLLMLLNQFLVSKIIEEYDGNVLWISKVSRGRDLFGTDYPDITVLELFTEKRGFSKLIIKNIDIEKISEIPEIEVLRKMEYTTFYTRLDNGKRVIRVDIVGRVDEKIVKEIMDRLSGVSIKGYPFPLLKAHMDVRFSAMDREKIIKLVGSKLHKDIEWWPSQFY
# B3: NurA F300E (enzyme, Sulfolobus solfataricus P2)
# chain: B2 chain with F300E
# B4: NurA I295E/F300E double mutant (enzyme, Sulfolobus solfataricus P2)
# chain: B2 chain with I295E, F300E
# B5: NurA I295E (enzyme, Sulfolobus solfataricus P2)
# chain: B2 chain with I295E
# B6: NurA K202A (enzyme, Sulfolobus solfataricus P2)
# chain: B2 chain with K202A
# Key:
# [1] = biological target: the molecule itself; assay: SEC
# [2] = biological target: the molecule itself; assay: crystal structure
# [3] = biological target: B1; assay: SEC
binder,measurement,setting,value
B1,stoichiometry N,[1],6
B2,stoichiometry N,[2],2
B3,stoichiometry N,[1],2
B4,stoichiometry N,[1],2
B5,stoichiometry N,[1],2
B6,binding result,[3],binds
